Measurements: US20180186897A1 (INSTITUTE FOR RESEARCH IN BIOMEDICINE, published 2018)
Positions count from the first letter of the chain named.

B1: MGC4 (antibody)
VH: EVQLVESGGGLVQPGGSLRLSCEGSGFNSRSYWMTWVRQAPGKGLEWVASINQDGTEKNYVDSVKGRFTISRDSAKNSLYLQMSSLRADDTAVYYCARDRFCGGESHLHGEEDLPRPSISAEPDTVIPLGSHVTFVCRGPVGVHTFRLERGWRYNDTEDVSQAGPSESEARFRIDSVREGNAGLYRCIYYIAPKWSEQSDYLELRVKGGDVTWALLTYCGGDGEESDYPMDVWGKGTTVTVSS
VL: QTVVTQEPSLTVSPGGTVTLTCASSTGPVTSAYYPNWFQQKPGQAPRSLIYSINKKHSWTPARFSGSLLGGKAALTLSGVQPEDEADYYCLLSCGGAQPWVFGGGTKLTVQ
B2: MGD41 (antibody)
VH: EVQLVESGPGLVKPSGTLSVTCTISGGSINTDKWWTWVRQPPGKGLEWVGEVLHTGSTNYNPSLRGRVTISVDKSKNQFSLRLSSVTAADTAVYYCATISTLRPQRDIEDLPRPSLSAEPGTVVPLGSHVTFVCRGPVGVQTFRLERESRSTYNDTEDVSQPSPFESEARFRIDSVSEGNAGPYRCIYYKSPKWSDQSDYVELLVKGEDVTWAPPQSQLAPRACPQGELRTSTDIFSMNVWGKGTTVTVSS
VL: AIRMTQSPSSLSAFTGDRVTISCRASQDIGNYLDWYHQKPGRAPKLLIHGASTLLTGVPSRFSGSGSGTDFTLNITCLQSGDFGIYYCLQYYSSPPAFGPGTRLEIK
B3: MGD47 (antibody)
VH: QVRLQESGPGLVKPSGTLSLTCTVSGGSISGYKWWSWVRQAPGKGLEWIGQVYDDGDTNYNPDLKGRVALSVDKSKSRFSLSLASVTAADTAIYFCATISPLRPQSDTGDLPRPSISAEPGTAIPLGSQVTFVCRGPIGVQTFRLERESRALYNDSEDVSQVSPSASEARFRIDSVSEGNAGPYRCIYYKARRWSDQSDYLELLVKGEDVTWALPQSQLAPRACPQEDLNISTDIFSTNVWGKGTTVTVSS
VL: AIRMTQSPASLSASVGDRVTITCRTSQDVGNYLDWYQQKPGKAPKLLIHGASTLQAGVPSRFNGSGSGTDFTLGISCVQSGDFAIYYCQQYYTSPPVFGQGTRLEIK
B4: MGD55 (antibody)
VH: QVQLQESGPGLVKPSGTLSLTCTVSGGSISAYKWWSWVRQAPGKGLEWIGQVYHNGNTNYNPSLKGRVAMSVDKSKNRFSLRLASVTAADTAVYYCATISPLRPQSDTDDLPRPSISAEPGTVIPLGSHVTFVCRGPIGVQTFRLERESRSLYSDTEDVSQVSPFASEARFRIDSVSEGNAGPYRCIYYKDRKWSDQSDYLELLVKGEDVTWALPQSQLAPRACPQEELNISTDIFSMNVWGKGTTVTVSS
VL: B3 VL with V15I, A56T, N63S, S67A, G74N, S76T, V78L, I85M, T93S, V97G
B5: MGD56 (antibody)
VH: QVQLQESGPGLVKPSGTLSLTCAVSGGSITTNNWWSWVRQTPGKGLEWIGEIFRSGTTNYNPSLKSRVAISLDKSKNQFSLKLTSVTAADTAVYYCATASPFKSQRDTKDLPRPSLSAEPGTVIPLGSHVTFVCRGPVGVQTFRLQRESRSLYNDTEDVSHPSPSESEARFRIDSVSEGNAGPYRCVYYKSSKWSEESDCLELLVKTEDVTWARPQPQLDPRACPRGDLRISTDVYYMDVWGKGTTVTVSS
VL: AIRMTQSPSSLSASTGDRVTITCRASQAITSYLAWYRQKPGKAPDLLIYNASTLQSGVPSRFSASGSGTDFALTITGLQSEDFVIYFCQHYYTYPPAFGQGTRLEIK
B6: MGC7 (antibody)
VH: EVQLVESGGDLVQPGGSLRLSCAASGFTFRNYWMSWVRQTPGKGLEWVANIRQDGSEKYYVDSVKGRFTISRDNAKNLLYLQMNSLRAEDTAVYYCVRDKFCSDENHMHVADDLPRPSISPEPGTVIPLGSHVTFVCRGPVGVQTFRLEKDRRSTYNDTEDVSQPSPSESEARFRIDSVTEGNAGLYRCVYYKPPKWSDQSDFLELLVKGEDVTWALFPHCGADGEDSDYYMDVWGKGTTVTVSS
VL: DIQMTQSPSSVSASVGDRVTITCRASQGLSTWLAWYQQKPGKAPKILIYAASSLQSGVPSRFSGSGSGTDFTLTISSLQPEDFATYYCQQANSFPLTFGGGTKVEIK
B7: MGC17 (antibody)
VH: EVQLVESGGGLVQPGGSLKLSCVASGFNFRKSWMSWVRQAPGKGLEWVANIREDGSKAYYVDSVKGRFTVSRDNAKNSLYLQINSLRADDTAVYYCARDRFCSDDEDHSHGAEDLPRPSISAEEGTVIPLGSRLTFVCRGPVGVHTFRLERDRRSTYNDTEDVSHPSPSESEARFRIDSVSEGNAGLYRCVYYKSPEWSKQSDYLELLVKGQEVTWALFTSCGGDGEVPDYDMDVRGKGTTVTVSS
VL: DIVMTQSPDSLAVSLGERATINCKSSQSVLYRSKNKKYLAWFQQRPGQPPKVLIYWTSTRASGVPDRFSGSGSGTDFTLTISSLQADDVAVYYCQQYFIFPYTFGQGTKLEIR
B8: MGC26 (antibody)
VH: EVQLVDSGGGLVQPGGSLRLSCAASGFTFSTYWMTWVRQTPGKGLEWVASIKQDGTERYYVDSVKGRFIISRDNAKNSLYLQMHSLRAEDTAVYYCVRDRFCRDHMHIEEDLPRPSISPEPATVIPLGSHVTIVCRGPVGVETFRLQKESRSLYNDTEDVSQPSPSESEARFRIDSVSEGHGGLYRCLYYKSSKWSEQSDYLEMLVKGEDVTWALFPYCGGDGEESDYYMDVWGKGTTVTVSS
VL: DIQLTQSPSTLSASVGDRVTISCRASQRLSRSLAWYQQRPRKAPNLLIYKASPLEIGGPSRFTGSGSGTEFTLTISSLQPDDSATYYCQQYSNYSYSFGQGTKLEIR
B9: MGC28 (antibody)
VH: EVQLVESGGGLVQPGGSLRLSCEASGFTFSSYWMTWVRQAPGKGLEWVANINQDGSERYYVDSVKGRFTISRDTVKNSLYLQMNNLRAEDTAVYYCARQRFCSDGSLFHGEDLPRPTISAETGTVISLGSHVTFVCRGPLGVQTFRLERESRSRYSETEDVSQVGPSESEARFRIDSVSEGNAGLYRCIYYKPPKWSEQSDYLELRVKGEDVTWALLTYCGGDRDESDYYMDVWGKGTTVTVSS
VL: QTVVTQEPSLTVSPGGTVTLTCASSTGSVTSGSFPNWFQQTPGQAPRSLIYSTTKKHSWTPARFSGSLLGGKAALTVSDTQPEDEAEYYCLLYCGGGQPWVFGGGTKLTVL
B10: MGC32 (antibody)
VH: EVQLVESGGGLVQPGGSLRLSCVASGFNFRKSWMGWVRQAPGKGLEWVANIREDGSESFYADSVKGRFTVSRDNAKKSLYLHINSLRAEDTAVYYCARDRFCNDDEIHRHGQEDLPRPSISAAEGTVIPLGSHVTFVCRGPVGVQTFRLEKDSRSIYNDTENVSQPSPSESEARFRIDSVSEGNAGLYRCVYYKAPKWSAQSDYLELLVKGQEVTWALFTSCGGDGEEPDYDMDVRGKGTTVTVSS
VL: B7 VL with V3L, K37N, R45K, W56S, S69T, D87E, Q95L, F98Y, F100T, R113K
B11: MGC33 (antibody)
VH: B9 VH with Q3H
VL: B9 VL with L111Q

What follows are binders tested against erythrocytes infected with P. falciparum field isolate 10936 (assay: flow cytometry, staining of IEs).

Q: Which % parasite recognition does the source give for B1 here?
A: 2.3%

Q: B2 was tested. Which % parasite recognition did it give?
A: 6.1%

Q: B3 was tested. Which % parasite recognition did it give?
A: 11.3%

Q: How did the % parasite recognition turn out when B4 was run?
A: 13.3%

Q: B5 was tested. Which % parasite recognition did it give?
A: 2.4%

Q: B6 was tested. Which % parasite recognition did it give?
A: 1.7%

Q: B7 was tested. Which % parasite recognition did it give?
A: 2.4%

Q: With B8 as the binder, how does the % parasite recognition read?
A: 3.6%

Q: With B9 as the binder, how does the % parasite recognition read?
A: 3%

Q: B10 was tested. Which % parasite recognition did it give?
A: 2.9%

Q: How did the % parasite recognition turn out when B11 was run?
A: 3.6%

The binders below were run against erythrocytes infected with P. falciparum field isolate 10975 (assay: flow cytometry, staining of IEs).

Q: With B1 as the binder, how does the % parasite recognition read?
A: 6.7%

Q: How did the % parasite recognition turn out when B2 was run?
A: 7.3%

Q: For B3, which % parasite recognition is on record?
A: 11.2%

Q: How did the % parasite recognition turn out when B4 was run?
A: 15.6%

Q: Which % parasite recognition does the source give for B5 here?
A: 6.7%

Q: B6 was tested. Which % parasite recognition did it give?
A: 0.7%

Q: For B7, which % parasite recognition is on record?
A: 1.5%

Q: For B8, which % parasite recognition is on record?
A: 7.3%

Q: With B9 as the binder, how does the % parasite recognition read?
A: 12.3%

Q: How did the % parasite recognition turn out when B10 was run?
A: 3.2%

Q: Which % parasite recognition does the source give for B11 here?
A: 11.5%

The binders below were run against erythrocytes infected with P. falciparum field isolate 11014 (assay: flow cytometry, staining of IEs).

Q: Which % parasite recognition does the source give for B1 here?
A: 3.6%

Q: Which % parasite recognition does the source give for B2 here?
A: 6.6%

Q: How did the % parasite recognition turn out when B3 was run?
A: 10.2%

Q: How did the % parasite recognition turn out when B4 was run?
A: 14.7%

Q: For B5, which % parasite recognition is on record?
A: 9.5%

Q: B6 was tested. Which % parasite recognition did it give?
A: 2.9%

Q: B7 was tested. Which % parasite recognition did it give?
A: 1.6%

Q: For B8, which % parasite recognition is on record?
A: 5.4%

Q: With B9 as the binder, how does the % parasite recognition read?
A: 2.8%

Q: How did the % parasite recognition turn out when B10 was run?
A: 4.5%

Q: B11 was tested. Which % parasite recognition did it give?
A: 2.9%

These binders were tested against erythrocytes infected with P. falciparum field isolate 11019 (assay: flow cytometry, staining of IEs).

Q: With B1 as the binder, how does the % parasite recognition read?
A: 31.1%

Q: B2 was tested. Which % parasite recognition did it give?
A: 6.8%

Q: How did the % parasite recognition turn out when B3 was run?
A: 24.6%

Q: For B4, which % parasite recognition is on record?
A: 33.1%

Q: How did the % parasite recognition turn out when B5 was run?
A: 4.3%

Q: For B6, which % parasite recognition is on record?
A: 13.8%

Q: Which % parasite recognition does the source give for B7 here?
A: 7.1%

Q: Which % parasite recognition does the source give for B8 here?
A: 50.8%

Q: B9 was tested. Which % parasite recognition did it give?
A: 30%

Q: How did the % parasite recognition turn out when B10 was run?
A: 38.1%

Q: With B11 as the binder, how does the % parasite recognition read?
A: 23.5%

Each binder was assayed against erythrocytes infected with P. falciparum field isolate 9106 (assay: flow cytometry, staining of IEs).

Q: With B1 as the binder, how does the % parasite recognition read?
A: 6.7%

Q: For B2, which % parasite recognition is on record?
A: 3.8%

Q: B3 was tested. Which % parasite recognition did it give?
A: 10.7%

Q: For B4, which % parasite recognition is on record?
A: 14.3%

Q: B5 was tested. Which % parasite recognition did it give?
A: 3.3%

Q: For B6, which % parasite recognition is on record?
A: 6.9%

Q: B7 was tested. Which % parasite recognition did it give?
A: 1.3%

Q: Which % parasite recognition does the source give for B8 here?
A: 8.5%

Q: How did the % parasite recognition turn out when B9 was run?
A: 7.5%

Q: How did the % parasite recognition turn out when B10 was run?
A: 7.8%

Q: For B11, which % parasite recognition is on record?
A: 7.5%

The binders below were run against erythrocytes infected with P. falciparum field isolate 9215 (assay: flow cytometry, staining of IEs).

Q: With B1 as the binder, how does the % parasite recognition read?
A: 21.7%

Q: Which % parasite recognition does the source give for B2 here?
A: 14.7%

Q: Which % parasite recognition does the source give for B3 here?
A: 22.3%

Q: How did the % parasite recognition turn out when B4 was run?
A: 38.8%

Q: For B5, which % parasite recognition is on record?
A: 12%

Q: For B6, which % parasite recognition is on record?
A: 19.3%

Q: With B7 as the binder, how does the % parasite recognition read?
A: 16.7%

Q: Which % parasite recognition does the source give for B8 here?
A: 9.5%

Q: With B9 as the binder, how does the % parasite recognition read?
A: 10.8%

Q: With B10 as the binder, how does the % parasite recognition read?
A: 13.1%

Q: B11 was tested. Which % parasite recognition did it give?
A: 11.5%

These binders were tested against erythrocytes infected with P. falciparum field isolate 9605 (assay: flow cytometry, staining of IEs).

Q: Which % parasite recognition does the source give for B1 here?
A: 22.2%

Q: How did the % parasite recognition turn out when B2 was run?
A: 17.2%

Q: Which % parasite recognition does the source give for B3 here?
A: 28.7%

Q: With B4 as the binder, how does the % parasite recognition read?
A: 37.2%

Q: For B5, which % parasite recognition is on record?
A: 17.3%

Q: How did the % parasite recognition turn out when B6 was run?
A: 22.8%

Q: B7 was tested. Which % parasite recognition did it give?
A: 6.8%

Q: With B8 as the binder, how does the % parasite recognition read?
A: 21.1%

Q: With B9 as the binder, how does the % parasite recognition read?
A: 20.9%

Q: For B10, which % parasite recognition is on record?
A: 22.9%

Q: With B11 as the binder, how does the % parasite recognition read?
A: 22.3%

The binders below were run against erythrocytes infected with P. falciparum field isolate 9775 (assay: flow cytometry, staining of IEs).

Q: Which % parasite recognition does the source give for B1 here?
A: 6.1%

Q: How did the % parasite recognition turn out when B2 was run?
A: 8.6%

Q: With B3 as the binder, how does the % parasite recognition read?
A: 14.4%

Q: For B4, which % parasite recognition is on record?
A: 19.4%

Q: For B5, which % parasite recognition is on record?
A: 6.6%

Q: B6 was tested. Which % parasite recognition did it give?
A: 4.6%

Q: For B7, which % parasite recognition is on record?
A: 2.5%

Q: Which % parasite recognition does the source give for B8 here?
A: 3.4%

Q: How did the % parasite recognition turn out when B9 was run?
A: 9.8%

Q: With B10 as the binder, how does the % parasite recognition read?
A: 7.9%

Q: For B11, which % parasite recognition is on record?
A: 9.7%
